Measurements taken from patent US20190381086A1, “INHIBITION OF NEDDYLATION USING GLYCYL-tRNA SYNTHETASE INHIBITORS” (The Scripps Research Institute, priority 2015, published 2019).

B1: full-length human GlyRS (enzyme)
chain: MDGAGAEEVLAPLRLAVRQQGDLVRKLKEDKAPQVDVDKAVAELKARKRVLEAKELALQPKDDIVDRAKMEDTLKRRFFYDQAFAIYGGVSGLYDFGPVGCALKNNIIQTWRQHFIQEEQILEIDCTMLTPEPVLKTSGHVDKFADFMVKDVKNGECFRADHLLKAHLQKLMSDKKCSVEKKSEMESVLAQLDNYGQQELADLFVNYNVKSPITGNDLSPPVSFNLMFKTFIGPGGNMPGYLRPETAQGIFLNFKRLLEFNQGKLPFAAAQIGNSFRNEISPRSGLIRVREFTMAEIEHFVDPSEKDHPKFQNVADLHLYLYSAKAQVSGQSARKMRLGDAVEQGVINNTVLGYFIGRIYLYLTKVGISPDKLRFRQHMENEMAHYACDCWDAESKTSYGWIEIVGCADRSCYDLSCHARATKVPLVAEKPLKEPKTVNVVQFEPSKGAIGKAYKKDAKLVMEYLAICDECYITEMEMLLNEKGEFTIETEGKTFQLTKDMINVKRFQKTLYVEEVVPNVIEPSFGLGRIMYTVFEHTFHVREGDEQRTFFSFPAVVAPFKCSVLPLSQNQEFMPFVKELSEALTRHGVSHKVDDSSGSIGRRYARTDEIGVAFGVTIDFDTVNKTPHTATLRDRDSMRQIRAEISELPSIVQDLANGNITWADVEARYPLFEGQETGKKETIEE
B2: ΔF84-L93 GlyRS (F84-L93 replaced by GGG) (enzyme)
chain: MDGAGAEEVLAPLRLAVRQQGDLVRKLKEDKAPQVDVDKAVAELKARKRVLEAKELALQPKDDIVDRAKMEDTLKRRFFYDQAGGGYDFGPVGCALKNNIIQTWRQHFIQEEQILEIDCTMLTPEPVLKTSGHVDKFADFMVKDVKNGECFRADHLLKAHLQKLMSDKKCSVEKKSEMESVLAQLDNYGQQELADLFVNYNVKSPITGNDLSPPVSFNLMFKTFIGPGGNMPGYLRPETAQGIFLNFKRLLEFNQGKLPFAAAQIGNSFRNEISPRSGLIRVREFTMAEIEHFVDPSEKDHPKFQNVADLHLYLYSAKAQVSGQSARKMRLGDAVEQGVINNTVLGYFIGRIYLYLTKVGISPDKLRFRQHMENEMAHYACDCWDAESKTSYGWIEIVGCADRSCYDLSCHARATKVPLVAEKPLKEPKTVNVVQFEPSKGAIGKAYKKDAKLVMEYLAICDECYITEMEMLLNEKGEFTIETEGKTFQLTKDMINVKRFQKTLYVEEVVPNVIEPSFGLGRIMYTVFEHTFHVREGDEQRTFFSFPAVVAPFKCSVLPLSQNQEFMPFVKELSEALTRHGVSHKVDDSSGSIGRRYARTDEIGVAFGVTIDFDTVNKTPHTATLRDRDSMRQIRAEISELPSIVQDLANGNITWADVEARYPLFEGQETGKKETIEE
B3: ΔInsertion 1 GlyRS (F147-F224 replaced by GSGSGG) (enzyme)
chain: MDGAGAEEVLAPLRLAVRQQGDLVRKLKEDKAPQVDVDKAVAELKARKRVLEAKELALQPKDDIVDRAKMEDTLKRRFFYDQAFAIYGGVSGLYDFGPVGCALKNNIIQTWRQHFIQEEQILEIDCTMLTPEPVLKTSGHVDKFADGSGSGGNLMFKTFIGPGGNMPGYLRPETAQGIFLNFKRLLEFNQGKLPFAAAQIGNSFRNEISPRSGLIRVREFTMAEIEHFVDPSEKDHPKFQNVADLHLYLYSAKAQVSGQSARKMRLGDAVEQGVINNTVLGYFIGRIYLYLTKVGISPDKLRFRQHMENEMAHYACDCWDAESKTSYGWIEIVGCADRSCYDLSCHARATKVPLVAEKPLKEPKTVNVVQFEPSKGAIGKAYKKDAKLVMEYLAICDECYITEMEMLLNEKGEFTIETEGKTFQLTKDMINVKRFQKTLYVEEVVPNVIEPSFGLGRIMYTVFEHTFHVREGDEQRTFFSFPAVVAPFKCSVLPLSQNQEFMPFVKELSEALTRHGVSHKVDDSSGSIGRRYARTDEIGVAFGVTIDFDTVNKTPHTATLRDRDSMRQIRAEISELPSIVQDLANGNITWADVEARYPLFEGQETGKKETIEE

Key:
[1] = molecular target: Ubc12^N8: NEDD8-conjugated Ubc12 (C111S, stable ester linkage to His-SUMO-tagged NEDD8) (UniProt P61081); test: biolayer interferometry (Octet), 30 °C, Ubc12^N8 (100 nM) immobilized on sensor tips, GlyRS 0.25 µM; in the presence of 0.5 mM of the small molecule GlySA
[2] = molecular target: Ubc12^N8: NEDD8-conjugated Ubc12 (C111S, stable ester linkage to His-SUMO-tagged NEDD8) (UniProt P61081); test: biolayer interferometry (Octet), 30 °C, Ubc12^N8 (100 nM) immobilized on sensor tips, GlyRS 0.25 µM; in the presence of 1.0 mM of the small molecule GlySA
[3] = molecular target: Ubc12^N8: NEDD8-conjugated Ubc12 (C111S, stable ester linkage to His-SUMO-tagged NEDD8) (UniProt P61081); test: biolayer interferometry, Ubc12^N8 immobilized, full-length GlyRS 8.07-129 nM
[4] = molecular target: Ubc12^N8: NEDD8-conjugated Ubc12 (C111S, stable ester linkage to His-SUMO-tagged NEDD8) (UniProt P61081); test: biolayer interferometry (Octet), 30 °C, Ubc12^N8 (100 nM) immobilized on sensor tips, GlyRS 0.25 µM; curve 'Blank' (no GlySA)
[5] = molecular target: Ubc12^N8: NEDD8-conjugated Ubc12 (C111S, stable ester linkage to His-SUMO-tagged NEDD8) (UniProt P61081); test: biolayer interferometry, Ubc12^N8 immobilized

Row | Binder | Kd [1] [nM] | Kd [2] [nM] | Kd [3] [nM] | Kd [4] [nM] | Kd [5] [nM] | fold decrease of binding against wild type GlyRS [5] [fold]
1 | B1 | 7.88 | 22.4 | 3.21 | 2.12 | – | –
2 | B2 | – | – | – | – | 27 | 9
3 | B3 | – | – | – | – | 4.32 | –
